# Measurements published in the nanobody polyreactivity screen of Harvey et al. (2022).
# Assay: yeast display, Sf9 membrane polyspecificity reagent, FACS + sequencing; frameworks hold sequencing errors
# How it was run: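 Using colony PCR, genes from sorted yeast display clones were amplified, then sequenced on MiSeq at 2 × 250 and filtered by CDR length. The clones had been stained with 10% biotinylated, detergent-solubilized Sf9 membrane reagent for 1 hour at 4 °C and sorted by FACS into low and high (top ~1%) gates on anti-HA and streptavidin fluorescence. Polyreactivity labels come from the gate of origin.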
row,Sequence,polyreactivity (PSR sort gate)
1,QVQLVESGGGLVQAGGSLRLSCAASGRIFSPYAMGWYRQAPGKERELVAAITSSGGSSYYADSVKGRFTISRDYAKNTVYLQMNSLKPEDTAVYYCNARRGRYTPSVNYWGQGTQVTVSS,high polyreactivity
2,QVQLVESGGGLVQAGGSLRLSCAASGRIFSPYAMGWYRQAPGKERELVATITSGGSTNYADSVKGRFTISRDNAKNTVYLQKNSLKPEDTAVYYCNAVYYSNPYYYSRVWQYYYWGQGTQVTVSS,low polyreactivity
3,QVQLVESGGGLVQAGGSLRLSCAASGRIFSRNAMGWSRQAPGKERELVAAISRSGGTTYYADSVKGRFTISRDNAKNTVYLQMISLKPEDTAVYYCAAYFWFYVQYEYWGQGTQVTVSS,high polyreactivity
4,QVQLVESGGGLVQAGGSLRLSCAASGRIFSRNAMGWYRQAPGKERELVAAISGSGGSTYYADSVKGRFTISRDNAKNTVYLQMNSLKPEDTAVYYCNKFGYHREYDYWGQGTQVTVSS,low polyreactivity
5,QVQLVESGGGLVQAGGSLRLSCAASGRIFSRNAMGWYRQAPGKERELVAAISRTGGSTYYADSVKGRFTISRDNAKNTVYLQMNSLKPEDTAVYYCADAYYRKSSYGQIVEYDYWGQGTQVTVSS,high polyreactivity
6,QVQLVESGGGLVQAGGSLRLSCAASGRIFSRNAMGWYRQAPGKERELVAGISARGGRTYYADSVKGRFTNSRDNAKNTVYLQMNSLKPEDTAVYYCAASFSAIRGGVRVTIDYYWGQGTQVTVSS,high polyreactivity
7,QVQLVESGGGLVQAGGSLRLSCAASGRIFSRNAMGWYRQAPGKEWELVARITVTVGSTYYADSVKGRFTISRDNAKNTVYLQMNSLKPEDTAVYYCAADAGYRYDCPYNYYYWGQGTQVTVSS,low polyreactivity
8,QVQLVESGGGLVQAGGSLRLSCAASGRIFSRYAKGWYRQAPGKERELVAAINKSGGSTYYADSVKGRFTISRDNAKNTVYLQMNSLKPEDTAVYYCNAVYYWYKGDYWGQGTQVTVSS,high polyreactivity
9,QVQLVESGGGLVQAGGSLRLSCAASGRIFSRYAMGWYLQAPGKERELVAAISWSGGSTYYADSVKGRFTISRDNAKNTVYLQMNSLKPEDTAVYYCAAKRQYTEYNYWGQGTQVTVSS,high polyreactivity
10,QVQLVESGGGLVQAGGSLRLSCAASGRIFSRYAMGWYRQAPGKERELVAAISKSGGRTYYADSVKGRFTISRDNAKNTVYLQKNSLKPEDTAVYYCATVIFRSSGYYYWGQGTQVTVSS,high polyreactivity
11,QVQLVESGGGLVQAGGSLRLSCAASGRIFSRYAMGWYRQAPGKERELVAAITRRGGSTYYADSVKGRFTISRDNAKNTVYLQMNSLKPEDTAVYYCAADGQWPWWLLRYDYWGQGTQVTVSS,high polyreactivity
12,QVQLVESGGGLVQAGGSLRLSCAASGRIFSRYTMGGYRQAPGKERELVAANSYRGGSTYYADSVKGRFTISRDNAKNTVYLQMNSLKPEDTAVYYCAARVQAIYRYDYWGQGTQVTVSS,high polyreactivity
13,QVQLVESGGGLVQAGGSLRLSCAASGRIFSRYTMGWYRQAPGKERELVATIRISGGNTYYADSVKGRFTISRDNAKNTVYLQMNSLKPDDTAVYYCAARYGWVQNTYTMYFWGQGTQVTVSS,high polyreactivity
14,QVQLVESGGGLVQAGGSLRLSCAASGRIFSSYAMGWYRQAPWKERELVAAISGSGGRTYYADSVKGRFTISRDNAKNTVYLQMNSLKPEDTAVYYCNARRRSPYSTGVAYDYWGQGTQVTVSS,high polyreactivity
15,QVQLVESGGGLVQAGGSLRLSCAASGRIFSSYTMGWYRQAPGKERELVAAISWRGGSTYYADSVKGRFTISRDNAKNTVYLQMNSLKPEDTAVYYCAADSRSHPGDYWGQGTQVTVSS,low polyreactivity
16,QVQLVESGGGLVQAGGSLRLSCAASGRIFSTYAMGWYRQAPGKERELVAAINKIGGSTYYADSVKGRFTISRDNAKNTVYLQMNSLIPEDTAVYYCAADAPYYPVRRYYYWGQGTQVTVSS,low polyreactivity
17,QVQLVESGGGLVQAGGSLRLSCAASGRIFSTYTMGWYRQAPGKEMELVAAIRANGGSTYYADSVKGRFTISRDNAKNTVYLQMNSLKPEDTAVYYCAALYRRYPYHYDSWGQGTQVTVSS,high polyreactivity
18,QVQLVESGGGLVQAGGSLRLSCAASGRIFSVNAMGWYRQATGKERELVASITMSGGSTYYADSVKGRFTISRDNAKNTVYIQMNSLKPEDTAVYYCAKGWSRYNDRERDDEYWGQGTQVTVSS,low polyreactivity
19,QVQLVESGGGLVQAGGSLRLSCAASGRIFSVNVMVWYRQAPGKERELVAAITWSVGSTYYADSVKARFTISRDNAKYTVSLQMYSLKPEDTAVYYSAARVPPVYGRVGGYHYWGQGTQVTVSS,low polyreactivity
20,QVQLVESGGGLVQAGGSLRLSCAASGRIFSVYAMGWSRQAPGKERELVATIRWGGGSTYYADSVKGRFTISRDNAKNTVYLQMNSLKPEDTAVYYCAAGWRGGRYRYFAYDYWGQGTQVTVSS,high polyreactivity

row,Sequence,polyreactivity (PSR sort gate)
1,QVQLVESGGGLVQAGGSLRLSCAASGRIFSVYAMGWYRQAPGKERELVAGITSSGGSTYYADSVKGRFTISRDNAKNTVYLQMNSLKPEDTAVYYCNAYSQYWLGNNYWGQGTQVTVSS,high polyreactivity
2,QVQLVESGGGLVQAGGSLRLSCAASGRIFSVYSMGWYRQAPGKERELVAAIRSGDRTNYADSVKGRFTISRDNAKNTVYLQMISLKPEVTAVYYCAAVRYPNWYDYWGHGTQVTVSS,high polyreactivity
3,QVQLVESGGGLVQAGGSLRLSCAASGRIFSWYAMGWYRQAPGKERELVAAISWNGGSTYYADSVKGRFTISRDNAKNTVYLQMNSLKPEDTAVYYCAATYRHYGYDSWGQGTQVTVSS,high polyreactivity
4,QVQLVESGGGLVQAGGSLRLSCAASGRIFSWYAMGWYRQAPGKEREMVARITTRGGNTYYADSVKGRFTISRDNAKNTVFLQMNSLKPEDTAVYYCAARHPYPIYDYWGQGTQVTVSS,low polyreactivity
5,QVQLVESGGGLVQAGGSLRLSCAASGRIFSWYDMGWDRQAPGKERELVAAISSGGSTIYADSVKGRFTISRDNAKQTVYLQMNSLKPEDTAVSYCNKSPSWWRYKTGLDYWGQGTQVTVSS,high polyreactivity
6,QVQLVESGGGLVQAGGSLRLSCAASGRIFSYAMGWYRQAPGKERELVAGISRSGGSTYYADSVKGRFTISRDNAKNTVYLQMNSLKPEDTAVYYCAAVKIRTVYKYNYWGQGTQVTVSS,high polyreactivity
7,QVQLVESGGGLVQAGGSLRLSCAASGRIFSYNAMGWYRQAPGKERELVAAIRVRGGSTYYADSVKGRFTLSRDNAKNTVYLQMNSLKPEDTAVYYCNASDYKISATNAVVRYYYWGQGTQVTVSS,high polyreactivity
8,QVQLVESGGGLVQAGGSLRLSCAASGRIFSYNAMGWYRQAPGKERELVAAISSGGSTYYADSVKGRFTISRDNAKNTVYLQMNSLKPEDTAVYYCAADRRYYSDMYYWGQGTQVTVSS,low polyreactivity
9,QVQLVESGGGLVQAGGSLRLSCAASGRIFSYNAMGWYRQAPGKERELVAAISYRGGSTYYADSVKGRFTISRDNAKNTVYLQMNSLKPEDTAVYYCNAEAYYPYGYDYWGQGTQVSVSS,low polyreactivity
10,QVQLVESGGGLVQAGGSLRLSCAASGRIFSYNAMGWYRQAPGKERELVAAITGGGSTNYADSVQGRFTISRDNAKNTVYLHMTSLKPEDTAVYYCAADARGYGYYYWGQGTQVTVSS,high polyreactivity
11,QVQLVESGGGLVQAGGSLRLSCAASGRIFSYNAMGWYRQAPGQERELVAAITTGGSTYYADSVKGRFTISRDNAKNTVYLQMNSLKPEDTAVYYCNKLGYYYDRRYDYWRQGTQVTVSS,high polyreactivity
12,QVQLVESGGGLVQAGGSLRLSCAASGRIFSYNARGWYRQAPGKERELVAAISSDGSTYYADSVKGRFTISRDNAKNTVYLQMNSRKPEDTAVYYCAARQVLWFDYTTAQVGSYKVNSWGQGTQVTVSS,low polyreactivity
13,QVQLVESGGGLVQAGGSLRLSCAASGRIFSYNVMGWYRQAPGKERELVAAITSNDGSTYYADSVKGRFTISRDNAKNTVYLQMNSLKPEVTAVYYCNADYGPVSLKEPFRDDYWGQGNQVTVSS,low polyreactivity
14,QVQLVESGGGLVQAGGSLRLSCAASGRIFSYYALGWYRQAPGKERELVAAISSRGGSTYYADSVKGRFTISRDNAKNTVYLQMNSLKPEDTAVYYCNAYVYQVIGHDYWGQGTQVTVSS,high polyreactivity
15,QVQLVESGGGLVQAGGSLRLSCAASGRIFSYYAMGWYRQAPGKERELVAAISRTGGTTYYADSVKGRFTISRDNAKNTVYLQMNSLNPEDTAVYYCYAVKAPYMRYDYWGQGTQVTVSS,high polyreactivity
16,QVQLVESGGGLVQAGGSLRLSCAASGRIFSYYAMGWYRQAPGKERELVAAISTSGGNTYYADSVKGRFTISRDNAKNTVYLQMNSLLTEDTAVYYCAAAYFSSGYKYYYWGQGTQVSVSS,high polyreactivity
17,QVQLVESGGGLVQAGGSLRLSCAASGRIFSYYAMGWYRQAPGKERELVAAISYSTTSTYYADSVKGRFTISRDNAKNTVYLQMNSLKPEDTAVYYCAAEFQPGSYTPTYDYWGQGTQVTVSS,low polyreactivity
18,QVQLVESGGGLVQAGGSLRLSCAASGRIFSYYAMGWYRQAPGKERELVATISGSGGSTYYADSVKGRFTISRDNAKNTVFLQMNSLKPEDTAVYYCAATGFIFRGRVRAIPRRYNYWGQGTQVTVSS,high polyreactivity
19,QVQLVESGGGLVQAGGSLRLSCAASGRIFSYYTMGGYRQAPGTERELVAAISSGGSTNYADSVKGRFTISRDNAKNTVYLQMNSLKPEDTAVYYCAVRSGRRNYDRPAFGYWGQGTQVTVSS,high polyreactivity
20,QVQLVESGGGLVQAGGSLRLSCAASGRIFSYYTMGWYRQAPGKEREFVAAISWNDGSTYYADSVKGRFTISRDNSKNTVYLQMNSLKPEDTAVYYCAAEYHYFWWRMDYWGQGTQVTVSS,high polyreactivity
